The values that follow come from patent US20110293511A1, “SPECIFIC BINDING PROTEINS AND USES THEREOF” (priority 2009, published 2011).

Assay [1] has as its target wild-type EGFR (wtEGFR) (human) (UniProt P00533). Briefly: Scatchard, 125I-labeled 528 on A431 cells.
Assay [2] has the same target. Briefly: Scatchard, A431 cells.
A further assay concerns the target de2-7 EGFR (human) (UniProt P00533). Briefly: immunohistochemistry on glioblastoma tissue; EGFR amplified, de2-7 EGFR expressed.
The target in assay [3] is wild-type EGFR (wtEGFR) (human) (UniProt P00533). Briefly: immunohistochemistry on glioblastoma tissue; EGFR amplified, no de2-7 EGFR.

The substance mAb528 (antibody) had a binding sites per cell (sites per cell) in assay [1] of 2e+06. The receptors per cell (receptors per cell) in assay [2] turned out to be 2e+06. The percent of immunoreactive cells (immunohistochemistry) (with de2-7 EGFR (human); in assay [3]) was greater than 75% in each case.
